Measured values reported in PMC11533912 (Journal of Nuclear Medicine, 2024).
Entries after “also recorded” stand apart in the source; their conditions may differ.

Experiments:
[1] = in vivo
[2] = Radio-HPLC stability/oxidation of drug product with and without excipients; assay type: physicochemical
Experimental: DOTAM-GRPR1 (C77H119N23O17, Fig. 1) was manufactured by Macrocyclics using Fmoc solid-phase peptide synthesis. The peptide was isolated via reverse-phase high-performance liquid chromatography. Chelation was achieved by adding ^212Pb in ammonium acetate (Sigma-Aldrich) to DOTAM-GRPR1 alone or in the presence of 5% ethanol (Spectrum Chemical), up to 30 mM ascorbic acid (Honeywell), and 0.02% polysorbate 80 (J.T. Baker). Experiments were conducted for 10 min at either room temperature or 50°C.
Fractions were collected from the column every 6–10 s for up to 10 min and then analyzed for radiometric detection using an automatic γ-counter (Perkin Elmer Wizard^2 2470).
FIGURE 4. Radio–high-performance liquid chromatography showing optimized formulation conditions compared with no excipients added to chelation reaction. When chelation occurs with just ^212Pb and peptide, oxidation is visible at time of 0 h with percent main peak of 91% (A), which becomes unquantifiable at time of 24 h (B). However, with addition of ethanol, ascorbic acid, and polysorbate 80, percent main peak is 96% at time of 0 h (C) and remains high at 94% after 24 h (D). CPM = counts per minute; N/A = not applicable; T = time. […]

[3] = in vivo; remark: listed apart in the source
[4] = Biodistribution at different specific activity (28, 140, 280 ng peptide); assay type: in vivo, PC-3 tumor-bearing mice
Experimental: For all tumor studies, 1 × 10^6 PC-3 cells were implanted subcutaneously into the right flank of each mouse in a mixture of equal volumes of HC-Matrigel (high concentration; Corning) and RPMI medium (Gibco) and grown to a volume of about 200–300 mm^3.
PC-3 tumors were grown in male mice until an approximate tumor volume of 300 mm^3 was reached. […] The background was automatically subtracted from the counts. A standard was also used for decay correction, and the percent injected dose (%ID) per gram of tissue was calculated for each organ collected.
FIGURE 3. In vivo distribution of [^212Pb]Pb-DOTAM-GRPR1. (A) In athymic nude male mice carrying subcutaneous PC-3 tumors, 370 kBq of drug were administered and organs were collected from 5 mice per time point: 1, 4, and 24 h after injection. (B) At different specific activity in PC-3 tumor-bearing mice, 370 kBq per 28, 140, or 280 ng of DOTAM-GRPR1 were administered and organs were collected from 5 mice per time point: 1, 4, and 24 h after injection. Tissue uptake is expressed as %ID/g ± SD (n = 5). All tissues with uptake below 2% at 1 h were excluded from graph. ***P = 0.00013 between 280 ng of pancreas and 28 ng of pancreas.

[5] = 370 kBq per 28, 140 or 280 ng DOTAM-GRPR1, PC-3 tumor-bearing mice

For `CC(C)C[C@H](NC(=O)C[C@H](O)[C@H](CC(C)C)NC(=O)[C@H](Cc1c[nH]cn1)NC(=O)CNC(=O)[C@@H](NC(=O)[C@H](C)NC(=O)[C@H](Cc1c[nH]c2ccccc12)NC(=O)[C@H](CCC(N)=O)NC(=O)[C@@H](Cc1ccccc1)NC(=O)CCNC(=O)CCNC(=O)CN1CCN(CC(N)=O)CCN(CC(N)=O)CCN(CC(N)=O)CC1)C(C)C)C(N)=O` [[^212Pb]Pb-DOTAM-GRPR1, metal not drawn], the “Effect of renal blockers on kidney retention” value [1] was “neither agent reduced the kidney retention”, the “Stability in optimized chelation formulation” value [2] was “increased the stability of the drug well beyond 24 h” and the Route of excretion [3] was “predominantly renal route of excretion”. The “Effect of low specific activity on tumor uptake” value [4, 5] was “did not negatively impact tumor uptake”, the “Effect of lowering specific activity on off-target accumulation” value [4, 5] was “low specific activity reduced off-target accumulation; also recorded: further reduced off-target accumulation, especially in the pancreas” and the “Reduction of pancreatic uptake on increasing peptide amount from 28 to 280 ng” value ([4]; 370 kBq per 28 vs 280 ng DOTAM-GRPR1, PC-3 tumor-bearing mice, n = 5 per time point, P = 0.00013) was “about 30%”.
